Patent publication US20210284749A1 (ABL BIO, published 2021)
Positions count from the first letter of the chain named.

T1: rat BCMA (1-49) fused to the Fc region of human IgG1 (rat; human)
T1 construct: Sino Biological Inc. 80156-R01H; also called 80156-R01H; not shown: Fc region of human IgG1
T1 chain: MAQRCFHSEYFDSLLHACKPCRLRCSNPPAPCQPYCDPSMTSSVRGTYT

T2: recombinant human BCMA (ELISA antigen, construct not specified) (human, UniProt Q02223 1-54)
T2 construct: Fc 1-51; Fc/His 1-51; Fc 4-48) was coated in these ELISAs; also called recombinant BCMA; recombinant protein
T2 sequence: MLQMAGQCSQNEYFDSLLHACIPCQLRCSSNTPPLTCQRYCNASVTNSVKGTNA

T3: human BCMA-Fc/His (1-51) (human, UniProt Q02223 1-51)
T3 construct: also called recombinant human BCMA-Fc/His; recombinant human BCMA-His (Sino Biological Inc.); not shown: Fc region; C-terminal His tag
T3 sequence: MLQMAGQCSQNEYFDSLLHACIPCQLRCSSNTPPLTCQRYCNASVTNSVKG

T4: human BCMA expressed on cell surface (H929, OPM-2, CHOK1-hBCMA cells) (human, UniProt Q02223 1-184)
T4 construct: also called cell-surface BCMA; BCMA on cell surface
T4 sequence: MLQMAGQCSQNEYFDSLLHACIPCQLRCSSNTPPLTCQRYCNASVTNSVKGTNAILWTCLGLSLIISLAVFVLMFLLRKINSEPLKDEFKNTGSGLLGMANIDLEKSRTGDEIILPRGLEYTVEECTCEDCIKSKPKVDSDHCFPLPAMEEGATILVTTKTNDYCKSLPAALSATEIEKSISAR

T5: mouse BCMA (1-49) fused to the Fc region of human IgG1 (mouse; human, UniProt O88472 1-49)
T5 construct: Sino Biological Inc. 50076-M01H; also called 50076-M01H; not shown: Fc region of human IgG1
T5 chain: T1 chain with R4Q, R22H, P31T, M40V, R45K

B1: anti-BCMA IgG antibody 5A6 (antibody, V domains shown)
VH: EVQLLESGGGLVQPGGSLRLSCAASGFTFSNYGVHWVRQAPGKGLEWVSYISYSGGTYYNPSLKSRFTISRDNSKNTLYLQMNSLRAEDTAVYYCARDSDDFGFDYWGQGTLVTVSS
VL: QSVLTQPPSASGTPGQRVTISCQGDSLRSYYVNWYQQLPGTAPKLLIYDHSKRPTGVPDRFSGSKSGTSASLAISGLRSEDEADYYCQSYDSSTVVFGGGTKLTVLG
notes: also called 5A6 WT; 5A6 antibody
B2: anti-BCMA IgG antibody 5D5 (antibody, V domains shown)
VH: EVQLLESGGGLVQPGGSLRLSCAASGFTFSDYGLSWVRQAPGKGLEWVSLIDSSGSSTFYADSVKGRFTISRDNSKNTLYLQMNSLRAEDTAVYYCAKEHGLFDSWGQGTLVTVSS
VL: EIVLTQSPGTLSLSPGERATLSCKASQDIDDDINWYQQKPGQAPRLLIYDASLRATGIPDRFSGSGSGTDFTLTISRLEPEDFAVYYCQQSLRTPITFGQGTKLEIKR
notes: also called 5D5 WT; 5D5 antibody

Tests used:
[1] = target: T1, rat BCMA (1-49) fused to the Fc region …; test: ELISA on 100 ng coated rat BCMA, antibody titrated, anti-human Fab HRP, absorbance 450 nm
Description: (§1) 100 ng of human, monkey, mouse, and rat BCMA antigens prepared in Example 1.1 were coated on the bottom of the plate, and then coated with 3% BSA to block nonspecific binding. Using the selected anti-BCMA IgG antibodies as primary antibodies, and the anti-human Fab HRP (1:20000 dilution) as a secondary antibody, ELISA assay was performed as described in Example 1.3.
(§2) Absorbancies at 450 nm measured with a microplate reader are shown in FIG. 3, and half maximal effective concentrations (EC₅₀) (nM) are shown in Table 9.

[2] = target: T6, monkey (Rhesus) BCMA (1-53) fused to the Fc region of human IgG1 (monkey (Rhesus); human, UniProt Q02223 1-54); test: ELISA on 100 ng coated rhesus BCMA, antibody titrated, anti-human Fab HRP, absorbance 450 nm
T6 construct: Sino Biological Inc. 90103-C02H; also called monkey BCMA; Monkey BCMA (1-53); not shown: Fc region of human IgG1
Description: as §1, §2

[3] = target: T6, monkey (Rhesus) BCMA (1-53) fused to …; test: BLI (Octet), monkey BCMA
[4] = target: T2, recombinant human BCMA (ELISA antigen, …); test: ELISA, 100 ng coated antigen
Description: as §1, §2

human BCMA-Fc/His (1-51) = target: T3, human BCMA-Fc/His (1-51); test: BLI (Octet), antigen on Ni-NTA biosensor, IgG in solution
Summary of the method: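 Human BCMA-Fc/His loaded at 5 μg/ml onto Ni-NTA biosensors to a 0.5–1.0 nm threshold, with antibody in solution. Association 5 min, dissociation 20 min, 30° C, 1XKB buffer. kon, kdis and KD derived in Octet analysis.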

[5] = target: T4, human BCMA expressed on cell surface …; test: FACS on H929 cells
[6] = target: T5, mouse BCMA (1-49) fused to the Fc …; test: ELISA on 100 ng coated mouse BCMA, antibody titrated, anti-human Fab HRP, absorbance 450 nm
Description: as §1, §2

[7] = target: T2, recombinant human BCMA (ELISA antigen, …); test: ELISA on coated recombinant human BCMA, antibody titrated, HRP anti-Fab detection, absorbance 450 nm
Description: Specific binding abilities of the anti-BCMA IgG antibodies isolated in Example 1.4 to recombinant BCMA protein were analyzed by ELISA.
Using recombinant human BCMA or monkey BCMA as an antigen, and HRP-conjugated Fab polychronal antibody reagent (Pierce, 31414) as a secondary antibody, ELISA was performed as described in Example 1.3.

[8] = target: T4, human BCMA expressed on cell surface …; test: FACS on OPM-2 cells, 10 µg/ml antibody, anti-human Fc-FITC; open histogram shifted right of the filled control
Description: Multiple myeloma cancer cells H929 (ATCC, CRL9068™) and OPM-2 cell line (DSMZ, ACC 50), which are known to express BCMA, were prepared, and human BCMA-overexpressed CHOK1-hBCMA cell line (constructed by ABIBio) were prepared.
10 μg/ml of the seven IgG antibodies (B58, 5A6, 5D5, 5B5, 1H, 2G, and 5G) purified in Example 1.4 was added to the prepared cells, incubated at 4° C. for 1 hour, and then washed two times with a PBS buffer solution. The anti-human Fc-FITC was diluted in 1:400, incubated at 4° C. for 1 hour, and then washed with a PBS buffer solution. These processes were repeated. In FIGS. 2A and 2B, MFI indicates mean fluorescence intensity.

Binder	binding result [1]	EC50 (read off the curve) [2]	Kd [3]	koff [3]	kon [3]	EC50 [4]	Kd (human BCMA-Fc/His (1-51))	koff (human BCMA-Fc/His (1-51))	kon (human BCMA-Fc/His (1-51))	MFI [5]	binding result [6]	EC50 (read off the curve) [7]	MFI [8]	EC50 (read off the curve) [1]	EC50 (read off the curve) [6]
B1	no binding (tested: about 30 µg/ml)	~0.02 µg/mL	4.51 nM	0.00163 s⁻¹	361000 M⁻¹ s⁻¹	100 nM	0.0212 nM	1.08e-05 s⁻¹	509000 M⁻¹ s⁻¹	68.2	no binding (tested: about 30 µg/ml)	~0.1 µg/mL	54.7		
B2		~0.01 µg/mL	0.346 nM	0.000585 s⁻¹	1.69e+06 M⁻¹ s⁻¹	140 nM	0.114 nM	0.000105 s⁻¹	919000 M⁻¹ s⁻¹	36.4		~0.1 µg/mL	21.8	~0.02 µg/mL	~0.01 µg/mL
